The labels stand for the following.
B1: Myc-tagged ZDHHC17 ANK (1-7) [human] / Flag-MAP2K4 [human] (parent complex)
chain 1: THIDDYSTWDIVKATQYGIYERCRELVEAGYDVRQPDKENVTLLHWAAINNRIDLVKYYISKGAIVDQLGGDLNSTPLHWATRQGHLSMVVQLMKYGADPSLIDGEGCSCIHLAAQFGHTSIVAYLIAKGQDVDMMDQNGMTPLMWAAYRTHSVDPTRLLLTFNVSVNLGDKYHKNTALHWAVLAGNTTVISLLLEAGANVDAQNIKGESALDLAKQRKNVWMINHLQEARQAKGYDN
chain 2: MAAPSPSGGGGSGGGSGSGTPGPVGSPAPGHPAVSSMQGKRKALKLNFANPPFKSTARFTLNPNPTGVQNPHIERLRTHSIESSGKLKISPEQHWDFTAEDLKDLGEIGRGAYGSVNKMVHKPSGQIMAVKRIRSTVDEKEQKQLLMDLDVVMRSSDCPYIVQFYGALFREGDCWICMELMSTSFDKFYKYVYSVLDDVIPEEILGKITLATVKALNHLKENLKIIHRDIKPSNILLDRSGNIKLCDFGISGQLVDSIAKTRDAGCRPYMAPERIDPSASRQGYDVRSDVWSLGITLYELATGRFPYPKWNSVFDQLTQVVKGDPPQLSNSEEREFSPSFINFVNLCLTKDESKRPKYKELLKHPFILMYEERAVEVACYVCKILDQMPATPSSPMYVD

Data on eight variants can be found in publication PMC6956818, “Activation of JNK and p38 MAPK Mediated by ZDHHC17 Drives Glioblastoma Multiforme Development and Malignant Progression” (Theranostics, 2020).

This assay covers variants of B1. Description: co-immunoprecipitation, quantified immunoblot; HEK293 cell lysates; parent: 1; read off a plot.
Consider chain 1 THIDDYSTWDIVKATQYGIYERCRELVEAGYDVRQPDKENVTLLHWAAINNRIDLVKYYISKGAIVDQLGGDLNSTPLHWATRGGHLSMVVQLMKYGADPSLIDGEGCSCIHLAAQFGHTSIVAYLIAKGQDVDMMDQNGMTPLMWAAYRTHSVDPTRLLLTFNVSVNLGDKYHKNTALHWAVLAGNTTVISLLLEAGANVDAQNIKGESALDLAKQRKNVWMINHLQEARQAKGYDN [chain 1 Q84G], for which the ratio to parent was roughly 0.85.

For the variant chain 1 THIGDYSTWDIVKATQYGIYERCRELVEAGYDVRQPDKENVTLLHWAAINNRIDLVKYYISKGAIVDQLGGDLNSTPLHWATRQGHLSMVVQLMKYGADPSLIDGEGCSCIHLAAQFGHTSIVAYLIAKGQDVDMMDQNGMTPLMWAAYRTHSVDPTRLLLTFNVSVNLGDKYHKNTALHWAVLAGNTTVISLLLEAGANVDAQNIKGESALDLAKQRKNVWMINHLQEARQAKGYDN [chain 1 D4G], the ratio to parent is roughly 0.43.

Turning to chain 1 THIDDYSTWDIVKATQYGIYERCRELVEAGYDVRQPDKENVTLLHWAAINNRIDLVKYYISKGAIVDQLGGDLNSTPLHGATRQGHLSMVVQLMKYGADPSLIDGEGCSCIHLAAQGGHTSIVAYLIAKGQDVDMMDQNGMTPLMWAAYRTHSVDPTRLLLTFNVSVNLGDKYHKNTALHWAVLAGNTTVISLLLEAGANVDAQNIKGESALDLAKQRKNVWMINHLQEARQAKGYDN [chain 1 W80G, chain 1 F117G], the ratio to parent was roughly 0.42.

On to chain 1 THIDGYSTWDIVKATQYGIYERCRELVEAGYDVRQPDKENVTLLHWAAINNRIDLVKYYISKGAIVDQLGGDLNSTPLHWATRQGHLSMVVQLMKYGADPSLIDGEGCSCIHLAAQFGHTSIVAYLIAKGQDVDMMDQNGMTPLMWAAYRTHSVDPTRLLLTFNVSVNLGDKYHKNTALHWAVLAGNTTVISLLLEAGANVDAQNIKGESALDLAKQRKNVWMINHLQEARQAKGYDN [chain 1 D5G], for which the ratio to parent is roughly 0.75.

Take chain 1 THIDDYSTWDIVKATQGGIYERCRELVEAGYDVRQPDKENVTLLHWAAINNRIDLVKYYISKGAIVDQLGGDLNSTPLHWATRQGHLSMVVQLMKYGADPSLIDGEGCSCIHLAAQFGHTSIVAYLIAKGQDVDMMDQNGMTPLMWAAYRTHSVDPTRLLLTFNVSVNLGDKYHKNTALHWAVLAGNTTVISLLLEAGANVDAQNIKGESALDLAKQRKNVWMINHLQEARQAKGYDN [chain 1 Y17G]: the ratio to parent is roughly 0.33.

On to chain 1 THIDDGSTWDIVKATQYGIYERCRELVEAGYDVRQPDKENVTLLHWAAINNRIDLVKYYISKGAIVDQLGGDLNSTPLHWATRQGHLSMVVQLMKYGADPSLIDGEGCSCIHLAAQFGHTSIVAYLIAKGQDVDMMDQNGMTPLMWAAYRTHSVDPTRLLLTFNVSVNLGDKYHKNTALHWAVLAGNTTVISLLLEAGANVDAQNIKGESALDLAKQRKNVWMINHLQEARQAKGYDN [chain 1 Y6G], for which the ratio to parent is roughly 0.35.

chain 1 THIDDYSTWDIVKATQYGIYERCRELVEAGYDVRQPDKENVTLLHWAAINNGIDLVKYYISKGAIVDQLGGDLNSTPLHWATRQGHLSMVVQLMKYGADPSLIDGEGCSCIHLAAQFGHTSIVAYLIAKGQDVDMMDQNGMTPLMWAAYRTHSVDPTRLLLTFNVSVNLGDKYHKNTALHWAVLAGNTTVISLLLEAGANVDAQNIKGESALDLAKQRKNVWMINHLQEARQAKGYDN [chain 1 R52G]: the ratio to parent was roughly 0.35.

As for chain 1 THIDDYSTWDIVKATQYGIYERCRELVEAGYDVRQPDKENVTLLHWAAINNRIDLVKYYISKGAIVDQLGGDLNSTPLHWATGQGHLSMVVQLMKYGADPSLIDGEGCSCIHLAAQFGHTSIVAYLIAKGQDVDMMDQNGMTPLMWAAYGTHSVDPTRLLLTFNVSVNLGDKYHKNTALHWAVLAGNTTVISLLLEAGANVDAQNIKGESALDLAKQRKNVWMINHLQEARQAKGYDN [chain 1 R83G, chain 1 R150G], the ratio to parent was roughly 0.75.
